Experimental data: patent US20030199423A1 (published 2003)

T1: ICAM-R mutant F21V/AS (human, UniProt P32942 30-547)
T1 construct: on transfected COS cells
T1 chain: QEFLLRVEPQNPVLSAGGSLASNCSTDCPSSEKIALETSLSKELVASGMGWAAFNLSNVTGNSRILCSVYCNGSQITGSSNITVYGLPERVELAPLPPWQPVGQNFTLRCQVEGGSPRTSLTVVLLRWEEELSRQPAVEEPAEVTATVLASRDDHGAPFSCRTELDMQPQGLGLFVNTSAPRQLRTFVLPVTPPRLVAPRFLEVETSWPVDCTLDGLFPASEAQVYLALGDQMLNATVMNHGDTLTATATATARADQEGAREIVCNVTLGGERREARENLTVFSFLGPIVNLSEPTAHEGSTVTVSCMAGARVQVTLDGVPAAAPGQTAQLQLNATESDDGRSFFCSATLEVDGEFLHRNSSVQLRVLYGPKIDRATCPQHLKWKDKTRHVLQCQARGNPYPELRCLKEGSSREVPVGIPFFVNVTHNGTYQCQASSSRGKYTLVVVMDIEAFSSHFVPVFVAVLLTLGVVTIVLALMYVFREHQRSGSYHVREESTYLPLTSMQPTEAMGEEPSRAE

T2: macaque ICAM-R on peripheral blood leukocytes (Macaca fascicularis, UniProt A0A2K5TJA8 30-547)
T2 construct: whole, on cells; also called monkey PBL; macaque leukocytes
T2 sequence: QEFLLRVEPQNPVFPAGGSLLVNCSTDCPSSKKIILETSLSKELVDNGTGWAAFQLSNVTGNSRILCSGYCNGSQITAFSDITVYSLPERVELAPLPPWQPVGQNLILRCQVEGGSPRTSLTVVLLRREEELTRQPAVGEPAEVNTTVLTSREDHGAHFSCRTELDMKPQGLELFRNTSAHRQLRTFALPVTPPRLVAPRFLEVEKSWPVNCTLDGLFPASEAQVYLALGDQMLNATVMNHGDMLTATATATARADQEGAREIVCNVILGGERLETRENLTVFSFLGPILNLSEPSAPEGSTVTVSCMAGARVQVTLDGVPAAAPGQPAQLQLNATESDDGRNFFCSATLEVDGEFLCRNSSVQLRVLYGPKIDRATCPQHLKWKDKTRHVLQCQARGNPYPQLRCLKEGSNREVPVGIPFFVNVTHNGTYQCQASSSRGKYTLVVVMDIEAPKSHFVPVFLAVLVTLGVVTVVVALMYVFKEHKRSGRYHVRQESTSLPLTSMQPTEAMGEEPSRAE

T3: ICAM-R/IgG chimera, wild type (human, UniProt P32942 30-485)
T3 construct: also called ICAM-3/IgG; ICAM-R/Ig fusion protein
T3 chain: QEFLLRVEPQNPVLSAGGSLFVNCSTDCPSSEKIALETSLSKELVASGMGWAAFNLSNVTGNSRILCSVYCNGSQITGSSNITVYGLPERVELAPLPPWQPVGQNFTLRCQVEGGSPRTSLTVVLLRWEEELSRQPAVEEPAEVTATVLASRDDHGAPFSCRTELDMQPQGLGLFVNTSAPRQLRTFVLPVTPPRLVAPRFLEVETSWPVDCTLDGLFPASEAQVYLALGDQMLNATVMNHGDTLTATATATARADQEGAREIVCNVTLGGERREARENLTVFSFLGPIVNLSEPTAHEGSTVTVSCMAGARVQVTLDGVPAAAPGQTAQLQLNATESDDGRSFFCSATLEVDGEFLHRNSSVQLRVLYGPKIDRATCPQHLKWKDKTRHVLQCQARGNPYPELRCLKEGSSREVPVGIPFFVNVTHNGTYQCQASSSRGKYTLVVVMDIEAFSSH

B1: monoclonal antibody ICR-8.1 (antibody, mouse IgG1, V domains shown)
VH: EIQLQQTGPELVKPGASVKISCKASGYSFTDCIILWVKQSHGKGLEWIGKINPYFGTTTYNLKFKGKATLTVDKSSSTAHMQLNSLTSEDSAVYYCARKEAYPDAMDYWGQGTSVTVSS
VL: DAVMTQTPLSLPVSLGDQASISCRSSQSLVHSNGDTYLHWYLQKPGQSPQLLIYKVSNRFSGVPDRFSGSGSGTDFTLKLSRVEAEDLGVYFCSQSTHVPYTFGGGTKLEIK
notes: murine IgG1, kappa; hybridoma ATCC HB 11232; also called 46D7E
B2: monoclonal antibody ICR-1.1 (antibody, mouse IgG2a, V domains shown)
VH: QVQLQQSGAELAKPGASVKMSCKASGYTFTVYWMHWVKQRPGQGLEWIGYINPNTDYTEYNQRFQDKATLTADKSSSTAYMQLSSLTSEDSAVYYCARWGGNSYGLDYWGQGTSVTVSS
VL: QIVLTQSPALMSASPGEKVTMTCSASSSVSYIYWYQQKPRSSPKPWIYLTSNLASGVPARFSGSGSGASYSLTISIMEAEDAATYYCQQWKSIPLTFGAGTKLELK
notes: murine IgG2a, kappa; hybridoma ATCC HB 11053; also called 26E3D; 26E3D-1
B3: ICAM-2/IgG fusion protein (Fc fusion, not shown: a dimerising Fc or GST)
chain: KVFEVHVRPKKLAVEPKGSLEVNCSTTCNQPEVGGLETSLDKILLDEQAQWKHYLVSNISHDTVLQCHFTCSGKQESMNSNVSVYQPPRQVILTLQPTLVAVGKSFTIECRVPTVEPLDSLTLFLFRGNETLHYETFGKAAPAPQEATATFNSTADREDGHRNFSCLAVLDLMSRGGNIFHKHSAPKMLEIYEPVSDSQ
B4: humanized ICR-1.1 antibody HuVHK/HuVKP (antibody, human IgG4, V domains shown)
VH: QVQLVQSGAEVKKPGASVKVSCKASGYTFTVYWMHWVRQAPGQGLEWMGYINPNTDYTEYNQRFQDRVTITADKSTSTAYMELSSLRSEDTAVYYCARWGGNSYGLDYWGQGTLVTVSS
VL: DIQMTQSPSSLSASVGDRVTITCSASSSVSYIYWYQQKPGKAPKPLIYLTSNLASGVPSRFSGSGSGTDFTLTISSLQPEDFATYYCQQWKSIPLTFGQGTKLEIK
notes: human IgG4, human kappa
B5: soluble human ICAM-R (receptor)
chain: T3 chain
notes: baculovirus, Sf-9 cells, lentil lectin purified; also called shICAM-R; soluble ICAM-R

Tests used:
ICAM-R mutant F21V/AS = target: T1, ICAM-R mutant F21V/AS; assay: FACS on COS transfectants
[1] = target: T2, macaque ICAM-R on peripheral blood …; assay: FACS on Macaca fascicularis PBL
Mac-1 (CD18/CD11b) = Mac-1 (CD18/CD11b) (UniProt P11215 17-1152; P05107 23-769); assay: neutrophil adhesion to coated chimeras with blocking antibodies
soluble human ICAM-R = target: B5; assay: ELISA on coated baculovirus soluble ICAM-R
[2] = target: T3, ICAM-R/IgG chimera, wild type; assay: ELISA on ICAM-R/Ig fusion protein
Gp 150,95 (CD18/CD11c) = target: T4, Gp 150,95 (CD18/CD11c) (UniProt P20702 20-1163; P05107 23-769); assay: shICAM-R coated fluorescent beads on wells coated with purified Gp 150,95
T4 construct: purified, coated on plastic
T4 sequence (P20702 20-1163 limits assumed, chain 1 of 2): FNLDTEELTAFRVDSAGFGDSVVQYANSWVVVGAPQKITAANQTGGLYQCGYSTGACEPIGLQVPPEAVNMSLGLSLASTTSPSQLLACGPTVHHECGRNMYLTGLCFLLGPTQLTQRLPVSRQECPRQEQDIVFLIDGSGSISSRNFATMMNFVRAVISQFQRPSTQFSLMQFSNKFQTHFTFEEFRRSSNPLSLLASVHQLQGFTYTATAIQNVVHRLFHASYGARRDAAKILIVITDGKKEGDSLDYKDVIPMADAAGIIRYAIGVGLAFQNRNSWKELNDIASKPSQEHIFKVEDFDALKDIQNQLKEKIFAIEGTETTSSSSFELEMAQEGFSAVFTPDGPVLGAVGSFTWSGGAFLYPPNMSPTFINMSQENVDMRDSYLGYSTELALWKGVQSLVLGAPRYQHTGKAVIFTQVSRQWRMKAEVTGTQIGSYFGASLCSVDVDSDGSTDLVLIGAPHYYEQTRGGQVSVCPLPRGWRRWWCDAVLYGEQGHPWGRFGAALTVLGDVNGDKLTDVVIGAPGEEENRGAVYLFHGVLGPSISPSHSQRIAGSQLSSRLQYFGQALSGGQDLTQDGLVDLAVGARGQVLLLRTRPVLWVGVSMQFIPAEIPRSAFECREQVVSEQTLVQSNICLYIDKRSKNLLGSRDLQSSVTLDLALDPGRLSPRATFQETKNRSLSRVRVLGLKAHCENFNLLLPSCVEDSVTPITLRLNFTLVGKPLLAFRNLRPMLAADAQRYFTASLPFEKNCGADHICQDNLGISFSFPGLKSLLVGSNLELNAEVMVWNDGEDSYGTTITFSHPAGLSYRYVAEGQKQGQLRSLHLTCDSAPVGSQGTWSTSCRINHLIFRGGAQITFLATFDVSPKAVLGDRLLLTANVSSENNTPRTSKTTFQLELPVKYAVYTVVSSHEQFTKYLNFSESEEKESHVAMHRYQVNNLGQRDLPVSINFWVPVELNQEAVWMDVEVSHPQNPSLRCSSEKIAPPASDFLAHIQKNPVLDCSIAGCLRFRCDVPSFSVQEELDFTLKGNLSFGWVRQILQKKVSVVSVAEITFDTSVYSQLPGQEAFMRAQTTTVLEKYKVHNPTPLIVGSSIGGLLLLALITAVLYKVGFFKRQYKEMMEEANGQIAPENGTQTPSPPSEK
T4 sequence (P05107 23-769 limits assumed, chain 2 of 2): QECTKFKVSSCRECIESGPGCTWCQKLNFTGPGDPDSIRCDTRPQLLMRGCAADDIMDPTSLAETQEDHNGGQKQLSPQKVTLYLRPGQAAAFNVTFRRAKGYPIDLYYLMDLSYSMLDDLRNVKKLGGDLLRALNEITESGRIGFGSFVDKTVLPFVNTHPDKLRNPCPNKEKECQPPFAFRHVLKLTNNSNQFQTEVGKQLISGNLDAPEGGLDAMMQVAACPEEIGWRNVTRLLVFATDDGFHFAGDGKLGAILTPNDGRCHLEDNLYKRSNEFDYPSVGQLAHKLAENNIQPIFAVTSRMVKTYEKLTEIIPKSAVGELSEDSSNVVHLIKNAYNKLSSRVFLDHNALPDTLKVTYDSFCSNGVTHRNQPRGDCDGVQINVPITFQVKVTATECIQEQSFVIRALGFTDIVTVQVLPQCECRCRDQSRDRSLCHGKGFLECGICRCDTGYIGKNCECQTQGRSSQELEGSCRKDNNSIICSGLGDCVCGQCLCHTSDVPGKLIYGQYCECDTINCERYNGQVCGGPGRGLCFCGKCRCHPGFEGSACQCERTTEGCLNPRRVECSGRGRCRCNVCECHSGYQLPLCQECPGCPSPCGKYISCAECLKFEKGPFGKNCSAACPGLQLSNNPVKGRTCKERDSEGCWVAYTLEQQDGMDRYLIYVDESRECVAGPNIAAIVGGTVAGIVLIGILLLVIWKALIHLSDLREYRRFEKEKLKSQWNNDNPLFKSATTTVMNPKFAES

Binder	binding result (ICAM-R mutant F21V/AS)	binding result [1]	also measured
B1	no binding	no binding	
B2	no binding	no binding	
B3			binding result (Mac-1 (CD18/CD11b)): binds
B4			binding relative to the chimeric antibody (MuVH/MuVK) (soluble human ICAM-R): ≤ 50 % difference; binding relative to the chimeric antibody (MuVH/MuVK) [2]: ≤ 50 % difference
B5			binding result (Gp 150,95 (CD18/CD11c)): binds
